Assay results: patent publication US20180009908

Columns and labels:
[1] = molecular target: T1, HA-tagged human IgG1 Fc portion with CH3 mutations E345R, Q347R, T366V, K409V; experiment: UPLC SEC of protein G-purified one-arm antibody co-expressed in HEK293F
T1 chain: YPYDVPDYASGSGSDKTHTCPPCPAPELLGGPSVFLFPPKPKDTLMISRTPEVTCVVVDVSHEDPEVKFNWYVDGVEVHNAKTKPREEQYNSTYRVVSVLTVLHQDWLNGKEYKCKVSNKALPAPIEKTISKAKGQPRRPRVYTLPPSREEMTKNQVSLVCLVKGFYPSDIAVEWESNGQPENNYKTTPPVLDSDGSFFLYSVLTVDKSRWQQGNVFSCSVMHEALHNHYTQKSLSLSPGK

[2] = molecular target: T2, HA-tagged human IgG1 Fc portion with CH3 mutations K360D, D399M, Y407A; experiment: as above
T2 chain: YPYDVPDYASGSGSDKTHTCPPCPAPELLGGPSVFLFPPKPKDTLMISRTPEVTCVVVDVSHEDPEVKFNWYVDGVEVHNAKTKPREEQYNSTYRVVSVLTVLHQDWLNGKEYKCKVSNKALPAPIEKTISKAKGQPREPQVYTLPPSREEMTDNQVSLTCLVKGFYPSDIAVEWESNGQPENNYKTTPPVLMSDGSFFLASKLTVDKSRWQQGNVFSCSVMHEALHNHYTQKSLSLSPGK

[3] = molecular target: BHA10 HC_20.8_B + BHA10 LC (IgG1); experiment: LCMS, IgG1 BsAb co-expression; HCA/HCB heterodimer carrying two LC1
[4] = molecular target: matuzumab HC_20.8_B + matuzumab LC (IgG1); experiment: as above
[5] = molecular target: BHA10 HC_20.8_B + BHA10 LC (IgG1); experiment: LCMS, IgG1 BsAb co-expression in HEK293F
[6] = molecular target: matuzumab HC_20.8_B + matuzumab LC (IgG1); experiment: LCMS, IgG1 BsAb co-expression in HEK293F
[7] = molecular target: BHA10 HC_20.8_B + BHA10 LC (IgG1); experiment: LCMS, IgG1 BsAb co-expression; HCA/HCB heterodimer carrying two LC2
[8] = molecular target: matuzumab HC_20.8_B + matuzumab LC (IgG1); experiment: as above
[9] = LCMS, IgG1 BsAb co-expression; HCA homodimer species
[10] = molecular target: BHA10 HC_20.8.34_B + BHA10 LC (IgG4 HC backbone); experiment: LCMS, IgG4 BsAb co-expression; HCA/HCB heterodimer carrying two LC1
[11] = molecular target: matuzumab HC_20.8.34_B + matuzumab LC (IgG4 HC backbone); experiment: as above
[12] = molecular target: BHA10 HC_20.8.34_B + BHA10 LC (IgG4 HC backbone); experiment: LCMS, IgG4 BsAb co-expression in HEK293F
[13] = molecular target: matuzumab HC_20.8.34_B + matuzumab LC (IgG4 HC backbone); experiment: LCMS, IgG4 BsAb co-expression in HEK293F
[14] = molecular target: BHA10 HC_20.8.34_B + BHA10 LC (IgG4 HC backbone); experiment: LCMS, IgG4 BsAb co-expression; HCA/HCB heterodimer carrying two LC2
[15] = molecular target: matuzumab HC_20.8.34_B + matuzumab LC (IgG4 HC backbone); experiment: as above
[16] = LCMS, IgG4 BsAb co-expression; HCA homodimer species
[17] = molecular target: matuzumab HC_7.8.60_B + matuzumab LC (IgG4 HC backbone); experiment: LCMS, IgG4 BsAb co-expression; HCA/HCB heterodimer carrying two LC1
[18] = molecular target: BHA10 HC_7.8.60_B + BHA10 LC (IgG4 HC backbone); experiment: as above
[19] = molecular target: matuzumab HC_7.8.60_B + matuzumab LC (IgG4 HC backbone); experiment: LCMS, IgG4 BsAb co-expression in HEK293F
[20] = molecular target: BHA10 HC_7.8.60_B + BHA10 LC (IgG4 HC backbone); experiment: LCMS, IgG4 BsAb co-expression in HEK293F
[21] = molecular target: matuzumab HC_7.8.60_B + matuzumab LC (IgG4 HC backbone); experiment: LCMS, IgG4 BsAb co-expression; HCA/HCB heterodimer carrying two LC2
[22] = molecular target: BHA10 HC_7.8.60_B + BHA10 LC (IgG4 HC backbone); experiment: as above
[23] = Pertuzumab × BHA10 IgG BsAbs (with select CH3 Designs)
[24] = Pertuzumab × Matuzumab IgG BsAbs (with select CH3 Designs)

B1: anti-c-Met 5D5 VH-human IgG1 HC with CH3 mutations K360D, D399M, Y407A, with 5D5 light chain (protein)
chain 1: EVQLVESGGGLVQPGGSLRLSCAASGYTFTSYWLHWVRQAPGKGLEWVGMIDPSNSDTRFNPNFKDRFTISADTSKNTAYLQMNSLRAEDTAVYYCATYRSYVTPLDYWGQGTLVTVSSASTKGPSVFPLAPSSKSTSGGTAALGCLVKDYFPEPVTVSWNSGALTSGVHTFPAVLQSSGLYSLSSVVTVPSSSLGTQTYICNVNHKPSNTKVDKRVEPKSCDKTHTCPPCPAPELLGGPSVFLFPPKPKDTLMISRTPEVTCVVVDVSHEDPEVKFNWYVDGVEVHNAKTKPREEQYNSTYRVVSVLTVLHQDWLNGKEYKCKVSNKALPAPIEKTISKAKGQPREPQVYTLPPSREEMTDNQVSLTCLVKGFYPSDIAVEWESNGQPENNYKTTPPVLMSDGSFFLASKLTVDKSRWQQGNVFSCSVMHEALHNHYTQKSLSLSPGK
chain 2: DIQMTQSPSSLSASVGDRVTITCKSSQSLLYTSSQKNYLAWYQQKPGKAPKLLIYWASTRESGVPSRFSGSGSGTDFTLTISSLQPEDFATYYCQQYYAYPWTFGQGTKVEIKRTVAAPSVFIFPPSDEQLKSGTASVVCLLNNFYPREAKVQWKVDNALQSGNSQESVTEQDSKDSTYSLSSTLTLSKADYEKHKVYACEVTHQGLSSPVTKSFNRGEC
% heterodimer (UPLC) [1]: 93%

B2: anti-c-Met 5D5 VH-human IgG1 HC with CH3 mutations E345R, Q347R, T366V, K409V, with 5D5 light chain (protein)
chain 1: EVQLVESGGGLVQPGGSLRLSCAASGYTFTSYWLHWVRQAPGKGLEWVGMIDPSNSDTRFNPNFKDRFTISADTSKNTAYLQMNSLRAEDTAVYYCATYRSYVTPLDYWGQGTLVTVSSASTKGPSVFPLAPSSKSTSGGTAALGCLVKDYFPEPVTVSWNSGALTSGVHTFPAVLQSSGLYSLSSVVTVPSSSLGTQTYICNVNHKPSNTKVDKRVEPKSCDKTHTCPPCPAPELLGGPSVFLFPPKPKDTLMISRTPEVTCVVVDVSHEDPEVKFNWYVDGVEVHNAKTKPREEQYNSTYRVVSVLTVLHQDWLNGKEYKCKVSNKALPAPIEKTISKAKGQPRRPRVYTLPPSREEMTKNQVSLVCLVKGFYPSDIAVEWESNGQPENNYKTTPPVLDSDGSFFLYSVLTVDKSRWQQGNVFSCSVMHEALHNHYTQKSLSLSPGK
chain 2: DIQMTQSPSSLSASVGDRVTITCKSSQSLLYTSSQKNYLAWYQQKPGKAPKLLIYWASTRESGVPSRFSGSGSGTDFTLTISSLQPEDFATYYCQQYYAYPWTFGQGTKVEIKRTVAAPSVFIFPPSDEQLKSGTASVVCLLNNFYPREAKVQWKVDNALQSGNSQESVTEQDSKDSTYSLSSTLTLSKADYEKHKVYACEVTHQGLSSPVTKSFNRGEC
% heterodimer (UPLC) [2]: 93.3%

B3: pertuzumab HC_20.8_A + pertuzumab LC (IgG1) (protein)
chain 1: EVQLVESGGGLVQPGGSLRLSCAASGFTFTDYTMDWVRKAPGKGLEWVADVNPNSGGSIYNQEFKGRFTLSVDRSKNTLYLQMNSLRAEDTAVYYCARNLGPSFYFDYWGQGTLVTVSSASTKGPSVFPLAPSSKSTSGGTAALGCLVKDYFPEPVTVSWNSGALTSGVATGPAVLQSSGLYSLSSVVTVPSSSLGTQTYICNVNHKPSNTKVDKKVEPKSCDKTHTCPPCPAPELLGGPSVFLFPPKPKDTLMISRTPEVTCVVVDVSHEDPEVKFNWYVDGVEVHNAKTKPREEQYQSTYRVVSVLTVLHQDWLNGKEYKCKVSNKALPAPIEKTISKAKGQPREPQVSTLPPSREEMTKNQVSLVCLVYGFYPSDIAVEWESNGQPENNYKTTPPVLDSDGSFFLYSVLTVDKSRWQQGNVFSCSVMHEALHNHYTQKSLSLSPGK
chain 2: RIQMTQSPSSLSASVGDRVTITCKASQDVSIGVAWYQDKPGKAPKLLIYSASYRYTGVPSRFSGSGSGTDFTLTISSLQPEDFATYYCQQYYIYPYTFGQGTKVEIKGQPKAAPSVTLFPPSSEELQANKATLVCYISDFYPGAVTVAWKADSSPVKAGVETTTPSKQSNNKYAAWSYLSLTPEQWKSHRSYSCQVTHEGSTVEKTVAPTEC
% AB (2x LC1) (incorrect assembly) [3]: 0%
% AB (2x LC1) (incorrect assembly) [4]: 0%
% AB (LC1/LC2) (correct IgG BsAb assembly) [5]: 96.5%
% AB (LC1/LC2) (correct IgG BsAb assembly) [6]: 96%
% AB (2x LC2) (incorrect assembly) [7]: 0%
% AB (2x LC2) (incorrect assembly) [8]: 0%
% AA Homodimer (incorrect assembly) ([9]; pertuzumab × BHA10 bispecific): 3.5%
% AA Homodimer (incorrect assembly) ([9]; pertuzumab × matuzumab bispecific): 2.1%

B4: pertuzumab HC_20.8.34_A + pertuzumab LC (IgG4 HC backbone) (protein)
chain 1: EVQLVESGGGLVQPGGSLRLSCAASGFTFTDYTMDWVRKAPGKGLEWVADVNPNSGGSIYNQEFKGRFTLSVDRSKNTLYLQMNSLRAEDTAVYYCARNLGPSFYFDYWGQGTLVTVSSASTKGPSVFPLAPCSRSTSESTAALGCLVKDYFPEPVTVSWNSGALTSGVATGPAVLQSSGLYSLSSVVTVPSSSLGTKTYTCNVDHKPSNTKVDKRVESKYGPPCPPCPAPEAAGGPSVFLFPPKPKDTLMISRTPEVTCVVVDVSQEDPEVQFNWYVDGVEVHNAKTKPREEQFQSTYRVVSVLTVLHQDWLNGKEYKCKVSNKGLPSSIEKTISKAKGQPREPQVSTLPPSQEEMTKNQVSLMCLVYGFYPSDIAVEWESNGQPENNYKTTPPVLDSDGSFFLYSVLTVDKSRWQEGNVFSCSVMHEALHNHYTQKSLSLSLG
chain 2: RIQMTQSPSSLSASVGDRVTITCKASQDVSIGVAWYQDKPGKAPKLLIYSASYRYTGVPSRFSGSGSGTDFTLTISSLQPEDFATYYCQQYYIYPYTFGQGTKVEIKGQPKAAPSVTLFPPSSEELQANKATLVCYISDFYPGAVTVAWKADSSPVKAGVETTTPSKQSNNKYAAWSYLSLTPEQWKSHRSYSCQVTHEGSTVEKTVAPTEC
% AB (2x LC1) (incorrect assembly) [10]: 0%
% AB (2x LC1) (incorrect assembly) [11]: 0%
% AB (LC1/LC2) (correct IgG BsAb assembly) [12]: 94.8%
% AB (LC1/LC2) (correct IgG BsAb assembly) [13]: 94.1%
% AB (2x LC2) (incorrect assembly) [14]: 0%
% AB (2x LC2) (incorrect assembly) [15]: 0%
% AA Homodimer (incorrect assembly) [16, 23]: 5.2%
% AA Homodimer (incorrect assembly) [16, 24]: 2.3%

B5: pertuzumab HC_7.8.60_A + pertuzumab LC (IgG4 HC backbone) (protein)
chain 1: EVQLVESGGGLVQPGGSLRLSCAASGFTFTDYTMDWVRKAPGKGLEWVADVNPNSGGSIYNQEFKGRFTLSVDRSKNTLYLQMNSLRAEDTAVYYCARNLGPSFYFDYWGQGTLVTVSSASTKGPSVFPLAPCSRSTSESTAALGCLVKDYFPEPVTVSWNSGALTSGVATGPAVLQSSGLYSLSSVVTVPSSSLGTKTYTCNVDHKPSNTKVDKRVESKYGPPCPPCPAPEAAGGPSVFLFPPKPKDTLMISRTPEVTCVVVDVSQEDPEVQFNWYVDGVEVHNAKTKPREEQFQSTYRVVSVLTVLHQDWLNGKEYKCKVSNKGLPSSIEKTISKAKGQPREPQVYTLPPSQEEMTDNQVSLTCLVKGFYPSDIAVEWESNGQPENNYKTTPPVLMSDGSFFLASRLTVDKSRWQEGNVFSCSVMHEALHNHYTQKSLSLSLG
chain 2: RIQMTQSPSSLSASVGDRVTITCKASQDVSIGVAWYQDKPGKAPKLLIYSASYRYTGVPSRFSGSGSGTDFTLTISSLQPEDFATYYCQQYYIYPYTFGQGTKVEIKGQPKAAPSVTLFPPSSEELQANKATLVCYISDFYPGAVTVAWKADSSPVKAGVETTTPSKQSNNKYAAWSYLSLTPEQWKSHRSYSCQVTHEGSTVEKTVAPTEC
% AB (2x LC1) (incorrect assembly) [17]: 0%
% AB (2x LC1) (incorrect assembly) [18]: 0%
% AB (LC1/LC2) (correct IgG BsAb assembly) [19]: 90.9%
% AB (LC1/LC2) (correct IgG BsAb assembly) [20]: 95.8%
% AB (2x LC2) (incorrect assembly) [21]: 0%
% AB (2x LC2) (incorrect assembly) [22]: 0%
% AA Homodimer (incorrect assembly) [16, 23]: 0%
% AA Homodimer (incorrect assembly) [16, 24]: 9.1%
